Experimental data published in patent publication US20120058906A1 (published 2012).
Values belong to the binder of their own block, whether it stands above or below them.

Key:
[1] = target: T1, rHuman Notch-1/Fc Chimera, CF (R&D Systems Cat#3647-TK) (human, UniProt P46531 19-526); assay: MSD ECL multi-spot, Fab 0.43 uM, blank 879
T1 construct: Bought Fc chimera; Fc part of the bought chimera not given

[2] = target: T2, rHuman IGF-1 sR (insulin-like growth factor-1 soluble receptor), CF (R&D Systems Cat#391-GR) (human, UniProt P08069 31-932); assay: MSD ECL multi-spot, Fab 0.43 uM, blank 879
T2 construct: Bought soluble receptor; also called IGF-R1

[3] = target: T3, Recombinant Human DLL4 (R&D Systems Cat#1506-D4/CF) (human, UniProt Q9NR61 27-524); assay: MSD ECL multi-spot, Fab 0.43 uM, blank 879
T3 construct: Bought recombinant protein; also called rHuman DLL4; delta-like protein 4

[4] = target: T4, rHuman IGF-1 sR (IGF-1 sR), CF (R&D Systems Cat#391-GR) (human, UniProt P08069 31-932); assay: ECL (MSD multi-spot), antigen spotted on plate; Fab 8 nM; blank 1117
T4 construct: Bought soluble receptor; also called insulin-like growth factor-1 soluble receptor; IGF-R1

[5] = target: T5, Recombinant Human DLL4 (R&D Systems Cat#1506-D4/CF) (human, UniProt Q9NR61 27-524); assay: as above
T5 construct: Bought protein; also called rHuman DLL4; delta-like protein 4

[6] = target: T6, rHuman EGF R/Fc Chimera, CF (R&D Systems Cat#344-ER) (human, UniProt P00533 25-645); assay: as above
T6 construct: Bought protein; also called epidermal growth factor receptor; Fc part of the bought chimera not given

[7] = target: T7, rHuman HGF R/c-MET/Fc Chimera, CF (R&D Systems Cat#358-MT/CF) (human, UniProt P08581 25-932); assay: as above
T7 construct: Bought protein; also called HGF R/Fc; hepatocyte growth factor receptor; Fc part of the bought chimera not given

[8] = target: T4, rHuman IGF-1 sR (IGF-1 sR), CF (R&D …); assay: ECL (MSD multi-spot), antigen spotted on plate; Fab 1.6 nM; blank 713
[9] = target: T5, Recombinant Human DLL4 (R&D Systems …); assay: as above
[10] = target: T6, rHuman EGF R/Fc Chimera, CF (R&D …); assay: as above
[11] = target: T7, rHuman HGF R/c-MET/Fc Chimera, CF (R&D …); assay: as above
[12] = target: T4, rHuman IGF-1 sR (IGF-1 sR), CF (R&D …); assay: ECL (MSD multi-spot), antigen spotted on plate; Fab 40 nM; blank 1442
[13] = target: T5, Recombinant Human DLL4 (R&D Systems …); assay: as above
[14] = target: T6, rHuman EGF R/Fc Chimera, CF (R&D …); assay: as above
[15] = target: T7, rHuman HGF R/c-MET/Fc Chimera, CF (R&D …); assay: as above
[16] = target: T4, rHuman IGF-1 sR (IGF-1 sR), CF (R&D …); assay: ECL (MSD multi-spot), antigen spotted on plate; Fab 0.32 nM; blank 518
[17] = target: T5, Recombinant Human DLL4 (R&D Systems …); assay: as above
[18] = target: T6, rHuman EGF R/Fc Chimera, CF (R&D …); assay: as above
[19] = target: T7, rHuman HGF R/c-MET/Fc Chimera, CF (R&D …); assay: as above
[20] = target: T4, rHuman IGF-1 sR (IGF-1 sR), CF (R&D …); assay: ECL (MSD multi-spot), antigen spotted on plate; Fab 200 nM; blank 1787
[21] = target: T5, Recombinant Human DLL4 (R&D Systems …); assay: as above
[22] = target: T6, rHuman EGF R/Fc Chimera, CF (R&D …); assay: as above
[23] = target: T7, rHuman HGF R/c-MET/Fc Chimera, CF (R&D …); assay: as above
[24] = target: T4, rHuman IGF-1 sR (IGF-1 sR), CF (R&D …); assay: ECL (MSD multi-spot), antigen spotted on plate; Fab 1000 nM; blank 2186
[25] = target: T5, Recombinant Human DLL4 (R&D Systems …); assay: as above
[26] = target: T6, rHuman EGF R/Fc Chimera, CF (R&D …); assay: as above
[27] = target: T7, rHuman HGF R/c-MET/Fc Chimera, CF (R&D …); assay: as above
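Further: blank spot per well as comparator with Hit at signal to blank ratio of 4 or more.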

- ECL signal [1]: 1790
- ECL signal [2]: 1140
- ECL signal [3]: 2540
B1: Fab VH1-46_IGHD6-13*01_IGHJ4*01 & B3_IGKJ1*01 (Fab, V domains shown)
VH: QVQLVQSGAEVKKPGASVKVSCKASGYTFTSYYMHWVRQAPGQGLEWMGIINPSGGSTSYAQKFQGRVTMTRDTSTSTVYMELSSLRSEDTAVYYCAREGYSSSWYDYFDYWGQGTLVTVSS
VL: not shown
notes: Expressed in E. coli as Fab: heavy chain with CH1 plus Flag and His tags from Plasmid A, kappa light chain constant region from Plasmid C; also called Fab No. 6

- ECL signal [4]: 1520
- ECL signal [5]: 44800
- ECL signal [6]: 1470
- ECL signal [7]: 1620
- ECL signal [8]: 966
- ECL signal [9]: 5920
- ECL signal [10]: 987
- ECL signal [11]: 861
- ECL signal [12]: 2140
- ECL signal [13]: 62000
- ECL signal [14]: 2300
- ECL signal [15]: 2110
- ECL signal [16]: 630
- ECL signal [17]: 916
- ECL signal [18]: 709
- ECL signal [19]: 710
- ECL signal [20]: 2780
- ECL signal [21]: 58700
- ECL signal [22]: 2920
- ECL signal [23]: 2840
- ECL signal [24]: 3070
- ECL signal [25]: 35300
- ECL signal [26]: 3580
- ECL signal [27]: 3310
B2: Fab VH1-46_IGHD6-6*01>1_IGHJ1*01_S104F & L6_IGKJ1*01 (Fab, V domains shown)
VH: QVQLVQSGAEVKKPGASVKVSCKASGYTFTSYYMHWVRQAPGQGLEWMGIINPSGGSTSYAQKFQGRVTMTRDTSTSTVYMELSSLRSEDTAVYYCAREEYSSFSAEYFQHWGQGTLVTVSS
VL: not shown
notes: Expressed in E. coli as a Fab; The heavy chain also carries the CH1 with Flag and His tags from Plasmid A, and the light chain the kappa CL from Plasmid C; also called VH1-46_IGHD6-6*01_IGHJ1*01 S104F & L6_IGKJ1*01; IGHV1-46*01
